B1: target 1 A18C,U19G (mixed)
RNA 1: CACCCGUGCAAAAAUGCAGGGGUCUAAAACUGAGCGGAUAACCUCUCUAUGG
RNA 2: GGGAAUGGAUCCACAUCUACGAAUUCGUACCAGCGAGAGGUUAUCCGCUCACCGAGAUCGGAAGAGCACACGU
B2: target 1 insC 3' of 18,insG 3' of 1 (mixed)
RNA 1: CACCCGUGCAAAAAUGCAGGGGUCUAAAACUGAGCGGAUAACCUCUCUAUGG
RNA 2: GGGAAUGGAUCCACAUCUACGAAUUCGUACCAUACGAGAGGUUAUCCGCUCAGCCGAGAUCGGAAGAGCACACGU
B3: target 1 insU 3' of 20,insA 3' of 4 (mixed)
RNA 1: CACCCGUGCAAAAAUGCAGGGGUCUAAAACUGAGCGGAUAACCUCUCUAUGG
RNA 2: GGGAAUGGAUCCACAUCUACGAAUUCGUACCAUUAGAGAGGUUAUCCGCAUCACCGAGAUCGGAAGAGCACACGU
B4: target 3 A12C (mixed)
RNA 1: CACCCGUGCAAAAUUGCAGGGGUCUAAAACGACCUGAAUAUUUCAGAUCAAA
RNA 2: GGGAAUGGAUCCACAUCUACGAAUUCGUUUUUGAUCUGACAUAUUCAGGUCUGCAGAUCGGAAGAGCACACGU
B5: target 3 A12G,U22A (mixed)
RNA 1: CACCCGUGCAAAAUUGCAGGGGUCUAAAACGACCUGAAUAUUUCAGAUCAAA
RNA 2: GGGAAUGGAUCCACAUCUACGAAUUCGUUAUUGAUCUGAGAUAUUCAGGUCUGCAGAUCGGAAGAGCACACGU
B6: target 3 C6A,U7G (mixed)
RNA 1: CACCCGUGCAAAAUUGCAGGGGUCUAAAACGACCUGAAUAUUUCAGAUCAAA
RNA 2: GGGAAUGGAUCCACAUCUACGAAUUCGUUUUUGAUCUGAAAUAUGAAGGUCUGCAGAUCGGAAGAGCACACGU
B7: target 3 A5C (mixed)
RNA 1: CACCCGUGCAAAAUUGCAGGGGUCUAAAACGACCUGAAUAUUUCAGAUCAAA
RNA 2: GGGAAUGGAUCCACAUCUACGAAUUCGUUUUUGAUCUGAAAUAUUCCGGUCUGCAGAUCGGAAGAGCACACGU
B8: target 3 U7G,A18G (mixed)
RNA 1: CACCCGUGCAAAAUUGCAGGGGUCUAAAACGACCUGAAUAUUUCAGAUCAAA
RNA 2: GGGAAUGGAUCCACAUCUACGAAUUCGUUUUUGGUCUGAAAUAUGCAGGUCUGCAGAUCGGAAGAGCACACGU
B9: target 3 C1U,U2G (mixed)
RNA 1: CACCCGUGCAAAAUUGCAGGGGUCUAAAACGACCUGAAUAUUUCAGAUCAAA
RNA 2: GGGAAUGGAUCCACAUCUACGAAUUCGUUUUUGAUCUGAAAUAUUCAGGGUUGCAGAUCGGAAGAGCACACGU
B10: target 3 U2G,U8C (mixed)
RNA 1: CACCCGUGCAAAAUUGCAGGGGUCUAAAACGACCUGAAUAUUUCAGAUCAAA
RNA 2: GGGAAUGGAUCCACAUCUACGAAUUCGUUUUUGAUCUGAAAUACUCAGGGCUGCAGAUCGGAAGAGCACACGU
B11: target 3 insU 3' of 19,insU 3' of 3 (mixed)
RNA 1: CACCCGUGCAAAAUUGCAGGGGUCUAAAACGACCUGAAUAUUUCAGAUCAAA
RNA 2: GGGAAUGGAUCCACAUCUACGAAUUCGUUUUUGUAUCUGAAAUAUUCAGGUUCUGCAGAUCGGAAGAGCACACGU
B12: target 3 C1G,A5C (mixed)
RNA 1: CACCCGUGCAAAAUUGCAGGGGUCUAAAACGACCUGAAUAUUUCAGAUCAAA
RNA 2: GGGAAUGGAUCCACAUCUACGAAUUCGUUUUUGAUCUGAAAUAUUCCGGUGUGCAGAUCGGAAGAGCACACGU
B13: target 3 insA 3' of 22,insG 3' of 6 (mixed)
RNA 1: CACCCGUGCAAAAUUGCAGGGGUCUAAAACGACCUGAAUAUUUCAGAUCAAA
RNA 2: GGGAAUGGAUCCACAUCUACGAAUUCGUUUAUUGAUCUGAAAUAUUCGAGGUCUGCAGAUCGGAAGAGCACACGU
B14: target 3 U7G,U22A (mixed)
RNA 1: CACCCGUGCAAAAUUGCAGGGGUCUAAAACGACCUGAAUAUUUCAGAUCAAA
RNA 2: GGGAAUGGAUCCACAUCUACGAAUUCGUUAUUGAUCUGAAAUAUGCAGGUCUGCAGAUCGGAAGAGCACACGU
B15: target 3 insA 3' of 8,insU 3' of 3 (mixed)
RNA 1: CACCCGUGCAAAAUUGCAGGGGUCUAAAACGACCUGAAUAUUUCAGAUCAAA
RNA 2: GGGAAUGGAUCCACAUCUACGAAUUCGUUUUUGAUCUGAAAUAUAUCAGGUUCUGCAGAUCGGAAGAGCACACGU
B16: target 3 G4A,A18G (mixed)
RNA 1: CACCCGUGCAAAAUUGCAGGGGUCUAAAACGACCUGAAUAUUUCAGAUCAAA
RNA 2: GGGAAUGGAUCCACAUCUACGAAUUCGUUUUUGGUCUGAAAUAUUCAAGUCUGCAGAUCGGAAGAGCACACGU
B17: target 3 insA 3' of 22,insC 3' of 19 (mixed)
RNA 1: CACCCGUGCAAAAUUGCAGGGGUCUAAAACGACCUGAAUAUUUCAGAUCAAA
RNA 2: GGGAAUGGAUCCACAUCUACGAAUUCGUUUAUUGCAUCUGAAAUAUUCAGGUCUGCAGAUCGGAAGAGCACACGU
B18: target 3 A5G,A13G (mixed)
RNA 1: CACCCGUGCAAAAUUGCAGGGGUCUAAAACGACCUGAAUAUUUCAGAUCAAA
RNA 2: GGGAAUGGAUCCACAUCUACGAAUUCGUUUUUGAUCUGGAAUAUUCGGGUCUGCAGAUCGGAAGAGCACACGU
B19: target 3 C6U,A11U (mixed)
RNA 1: CACCCGUGCAAAAUUGCAGGGGUCUAAAACGACCUGAAUAUUUCAGAUCAAA
RNA 2: GGGAAUGGAUCCACAUCUACGAAUUCGUUUUUGAUCUGAAUUAUUUAGGUCUGCAGAUCGGAAGAGCACACGU
B20: target 3 C1G,U7G (mixed)
RNA 1: CACCCGUGCAAAAUUGCAGGGGUCUAAAACGACCUGAAUAUUUCAGAUCAAA
RNA 2: GGGAAUGGAUCCACAUCUACGAAUUCGUUUUUGAUCUGAAAUAUGCAGGUGUGCAGAUCGGAAGAGCACACGU
B21: target 3 insG 3' of 5,insA 3' of 3 (mixed)
RNA 1: CACCCGUGCAAAAUUGCAGGGGUCUAAAACGACCUGAAUAUUUCAGAUCAAA
RNA 2: GGGAAUGGAUCCACAUCUACGAAUUCGUUUUUGAUCUGAAAUAUUCAGGGAUCUGCAGAUCGGAAGAGCACACGU
B22: target 3 insU 3' of 22,insU 3' of 5 (mixed)
RNA 1: CACCCGUGCAAAAUUGCAGGGGUCUAAAACGACCUGAAUAUUUCAGAUCAAA
RNA 2: GGGAAUGGAUCCACAUCUACGAAUUCGUUUUUUGAUCUGAAAUAUUCAUGGUCUGCAGAUCGGAAGAGCACACGU
B23: target 3 insC 3' of 4,insU 3' of 3 (mixed)
RNA 1: CACCCGUGCAAAAUUGCAGGGGUCUAAAACGACCUGAAUAUUUCAGAUCAAA
RNA 2: GGGAAUGGAUCCACAUCUACGAAUUCGUUUUUGAUCUGAAAUAUUCAGCGUUCUGCAGAUCGGAAGAGCACACGU

In this series the target is T1, EsCas13d, nuclease-dead (Eubacterium siraeum, UniProt B0MS50, R295A;H300A;R849A;H854A).
T1 sequence: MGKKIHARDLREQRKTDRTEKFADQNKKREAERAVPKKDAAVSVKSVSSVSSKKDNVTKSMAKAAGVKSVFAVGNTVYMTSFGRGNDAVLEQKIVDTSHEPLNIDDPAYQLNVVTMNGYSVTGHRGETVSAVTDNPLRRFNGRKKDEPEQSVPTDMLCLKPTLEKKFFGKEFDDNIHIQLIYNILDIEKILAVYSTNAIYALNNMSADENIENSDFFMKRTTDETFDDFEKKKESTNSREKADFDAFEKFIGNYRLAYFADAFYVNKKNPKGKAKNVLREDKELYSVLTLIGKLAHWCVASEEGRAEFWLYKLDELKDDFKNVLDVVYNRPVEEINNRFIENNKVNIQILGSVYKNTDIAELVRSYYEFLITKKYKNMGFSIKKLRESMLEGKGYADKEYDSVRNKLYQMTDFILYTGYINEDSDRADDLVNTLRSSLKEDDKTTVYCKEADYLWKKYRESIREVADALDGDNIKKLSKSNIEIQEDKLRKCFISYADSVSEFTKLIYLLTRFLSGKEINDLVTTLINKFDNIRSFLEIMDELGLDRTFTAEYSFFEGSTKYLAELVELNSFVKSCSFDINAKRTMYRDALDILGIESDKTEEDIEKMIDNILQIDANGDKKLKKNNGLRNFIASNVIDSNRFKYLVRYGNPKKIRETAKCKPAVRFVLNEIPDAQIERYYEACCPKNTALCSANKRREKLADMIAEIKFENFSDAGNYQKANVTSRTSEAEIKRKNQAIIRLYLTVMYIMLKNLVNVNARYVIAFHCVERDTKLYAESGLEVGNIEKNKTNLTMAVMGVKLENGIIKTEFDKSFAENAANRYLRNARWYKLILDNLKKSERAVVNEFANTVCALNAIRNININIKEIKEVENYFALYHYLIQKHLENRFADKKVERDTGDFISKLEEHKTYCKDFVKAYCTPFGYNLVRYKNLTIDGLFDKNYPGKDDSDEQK
As to the kind of experiment: crRNA (strand 1, pre-loaded); Mg2+; 40 mM Tris-HCl pH 7.5, 150 mM NaCl, 6 mM MgCl2, 1 mM DTT, 0.1% Tween-20, 0.2 mg/ml BSA; 25 C; 10 min per concentration, then washed. To be noted: tags: His6-TwinStrep-SUMO cleaved; N-terminal SNAP kept (SNAP-Surface 488); label: 3' end held by stalled T7 RNA polymerase.
On to B1, for which binding was characterised by a dissociation constant (Kd) of 55 ± 14 nM.

On to B2, for which the Kd – broadly, the free concentration of one partner at which half of the binding sites on the other are occupied at equilibrium, for simple one-to-one binding – was found to be 34 ± 4 nM.

In turn, B3 gave a Kd of 8.6 ± 0.7 nM.

For B4, binding was characterised by a dissociation constant (Kd) of 53 ± 8.5 nM.

B5 returned a Kd of 40.5 ± 5.5 nM.

B6 showed a Kd of 58 ± 6.5 nM.

Take B7: binding was put at a Kd of 64.5 ± 11 nM.

B8 returned a Kd of 64 ± 22.5 nM.

B9: the Kd amounted to 91 ± 20 nM.

In turn, B10 came in with a dissociation constant Kd of 20.6 ± 2.2 nM.

B11 came in with a dissociation constant Kd of 105 ± 45 nM.

For B12, the Kd turned out to be 83.5 ± 23 nM.

On to B13, for which binding was characterised by a dissociation constant (Kd) of 12.2 ± 1.3 nM.

Take B14: binding was characterised by a dissociation constant (Kd) of 41 ± 5.5 nM.

Turning to B15, binding was put at a Kd of 70 ± 20 nM.

On to B16, for which the Kd came out at 13.7 ± 1.15 nM.

On to B17, for which the Kd was 91 ± 25.5 nM.

Take B18: the Kd was around 100 nM.

Molecule B19 registered a Kd of 92 ± 24 nM.

Take B20: the affinity, expressed as Kd, was 28.9 ± 5.65 nM.

In turn, B21 registered a Kd of 17.2 ± 2.55 nM.

In turn, B22 came in with a Kd of 6.45 ± 0.55 nM.

B23 yielded a Kd of 29.1 ± 3.6 nM.

The values are drawn from article PMC10786891, “Massively parallel profiling of RNA-targeting CRISPR-Cas13d”.
